# Article doi:10.1101/2021.12.06.470909, “Ubiquitination regulates cytoophidium assembly in Schizosaccharomyces pombe” (bioRxiv, 2021)
# Target: T1, ubiquitin (S. pombe (endogenous in S. pombe), UniProt P0CG72 1-76)
# T1 construct: ubiquitin of S. pombe, the cut product of the ubiquitin precursors; precipitated with an anti-ubiquitin polyclonal antibody; The ubiquitin may be free, in chains or covalently conjugated; source: endogenous, S. pombe lysate
# Assay: co-IP; S. pombe extract (Buffer A: 50mM Hepes-KOH pH 7.5, 5mM MgAc, 100mM KAc, 0.1% NP40, 1mM DTT, 0.5mg/ml BSA) precipitated with anti-ubiquitin rabbit polyclonal antibody overnight at 4°C, then A/G magnetic beads; blot with anti-HA (Cts1-flag-3HA, with MG132) or anti-GFP (Cts1-YFP strains; also in mug30Δ and ubr11Δ backgrounds); IP signal normalised over input
# Conditions: partners not purified
# T1 sequence (P0CG72 1-76): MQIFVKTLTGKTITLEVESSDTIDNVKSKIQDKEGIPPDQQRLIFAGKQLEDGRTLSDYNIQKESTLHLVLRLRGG
binder,measurement,value
"Cts1-YFP K430R (enzyme, S. pombe, UniProt O42644 1-600, looked up, CTP synthase (Cts1) of Schizosaccharomyces pombe with the point mutation K430R, fused to YFP; source: S. pombe K430R strain in a Cts1-YFP background, in cell lysate) MKYVLVSGGVISGIGKGVIASSTGLLLKTLGLKVTSIKIDPYMNIDAGTMSPLEHGEVFVLNDGGEVDLDLGNYERYLNVTLTHDNNITTGKVYSNVIQKERRGDYLGKTVQIVPHVTNEIQDWVERVARIPVDQSGEEPDVCIVELGGTVGDIESAAFVEAMRQFQFRVGHENFVSIHVSLVPVINGEQKTKPTQQAIRDLRSLGITPDLIACRCKQPLEKSVIDKISLFCHVGPEQVLAVHDVSSTYHVPQLLEDKLLEYLKIRFALDKISVSRELALAGENMWSSWKHLTQGYDHLFKKVTIVLVGKYTHLQDSYISVIKALEHSAMRCGRKLDLQWVEASHLEASTNTSDPLSYHKAWHLVCSANGILVPGGFGSRGVEGMIAAAKWARENNTPYLGICLGMQVAVIEFARSVCGIEGAFSEEFDRECENNVVVYMPEIDKDKLGGTMRLGLRPTFFQPNSEWSKLRKLHKMVDEVLERHRHRYEINPAFVSRLEQGGISFIGKDERGERMEIIEKRDHPYFVGVQYHPEYLSKPLKPSPPIFGLVAASAGLLDEFIQSGEEVEWSNFSHFNAESALADMNDSVEVTEEATVVTIS",fold reduction of the co-IP signal against Cts1-YFP,6.2 fold
